Measured values published in US20090092971.

Biological target: active RhoA, P61586
Sequence (P61586 1-190): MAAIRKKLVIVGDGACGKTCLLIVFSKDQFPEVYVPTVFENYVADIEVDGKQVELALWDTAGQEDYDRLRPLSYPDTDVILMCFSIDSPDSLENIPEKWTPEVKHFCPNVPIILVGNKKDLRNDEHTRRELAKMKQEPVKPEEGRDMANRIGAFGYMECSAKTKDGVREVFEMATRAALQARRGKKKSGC

B1: GEF-H1 (Rho guanine nucleotide exchange factor H1) (protein)
chain: MKEAKDARYTNGHLFTTISVSGMTMCYACNKSITAKEALICPTCNVTIHNRCKDTLANCTKVKQKQQKAALLKNNTALQSVSLRSKTTIRERPSSAIYPSDSFRQSLLGSRRGRSSLSLAKSVSTTNIAGHFNDESPLGLRRILSQSTDSLNMRNRTLSVESLIDEEVIYSELMSDFEMDEKDFAADSWSLAVDSSFLQQHKKEVMKQQDVIYELIQTELHHVRTLKIMTRLFRTGMLEELHLEPGVVQGLFPCVDELSDIHTRFLSQLLERRRQALCPGSTRNFVIHRLGDLLISQFSGPSAEQMCKTYSEFCSRHSKALKLYKELYARDKRFQQFIRKVTRPAVLKRHGVQECILLVTQRITKYPLLISRILQHSHGIEEERQDLTTALGLVKELLSNVDEGIYQLEKGARLQEIYNRMDPRAQTPVPGKGPFGREELLRRKLIHDGCLLWKTATGRFKDVLVLLMTDVLVFLQEKDQKYIFPTLDKPSVVSLQNLIVRDIANQEKGMFLISAAPPEMYEVHTASRDDRSTWIRVIQQSVRTCPSREDFPLIETEDEAYLRRIKMELQQKDRALVELLREKVGLFAEMTHFQAEEDGGSGMALPTLPRGLFRSESLESPRGERLLQDAIREVEGLKDLLVGPGVELLLTPREPALPLEPDSGGNTSPGVTANGEARTFNGSIELCRADSDSSQRDRNGNQLRSPQEEALQRLVNLYGLLHGLQAAVAQQDTLMEARFPEGPERREKLCRANSRDGEAGRAGAAPVAPEKQATELALLQRQHALLQEELRRCRRLGEERATEAGSLEARLRESEQARALLEREAEEARRQLAALGQTEPLPAEAPWARRPVDPRRRSLPAGDALYLSFNPPQPSRGTDRLDLPVTTRSVHRNFEDRERQELGSPEERLQDSSDPDTGSEEEGSSRLSPPHSPRDFTRMQDIPEETESRDGEAVASES
Q: With B1 as the protein, how does the “RhoA activity (active RhoA pulled down with GST-Rhotekin-RBD, western blot)” value read?
A: The value was “the RhoA activity increased by at least 5 times”.
